In patent US20250352662A1 (MERSANA THERAPEUTICS, published 2025) one finds EC50 data, which are given here for four molecules.

Values joined by “and” are separate entries in the source; they are usually repeats but may differ in a detail not shown here. Equal entries are not always repeated.

T1: human NaPi2b on OVCAR3 human ovarian cancer cells (human, UniProt O95436 1-690)
T1 construct: also called SLC34A2; sodium-dependent phosphate transport protein 2B
T1 sequence: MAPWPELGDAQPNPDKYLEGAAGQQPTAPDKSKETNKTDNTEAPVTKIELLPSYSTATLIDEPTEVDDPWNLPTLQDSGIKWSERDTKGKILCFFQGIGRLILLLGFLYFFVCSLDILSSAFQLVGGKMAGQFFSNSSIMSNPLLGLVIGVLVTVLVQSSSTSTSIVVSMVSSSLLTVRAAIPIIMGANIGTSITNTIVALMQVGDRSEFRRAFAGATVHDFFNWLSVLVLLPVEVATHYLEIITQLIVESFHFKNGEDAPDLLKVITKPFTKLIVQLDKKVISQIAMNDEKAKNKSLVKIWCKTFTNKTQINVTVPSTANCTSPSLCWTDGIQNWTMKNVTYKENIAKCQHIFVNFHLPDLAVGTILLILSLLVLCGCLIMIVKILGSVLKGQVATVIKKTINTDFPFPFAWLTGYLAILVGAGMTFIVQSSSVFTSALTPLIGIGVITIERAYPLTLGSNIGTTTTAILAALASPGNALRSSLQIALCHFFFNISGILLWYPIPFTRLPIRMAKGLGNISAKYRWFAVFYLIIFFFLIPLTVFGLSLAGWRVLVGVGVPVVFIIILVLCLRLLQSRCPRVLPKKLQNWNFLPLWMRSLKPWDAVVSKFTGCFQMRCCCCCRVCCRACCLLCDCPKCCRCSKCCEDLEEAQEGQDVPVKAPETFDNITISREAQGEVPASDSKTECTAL

B1: XMT-1535 mIgG2a (antibody, V domains shown)
VH: QVQLVQSGAEVVKPGASVKMSCKASGYTFTGYNIHWVKQAPGQGLEWIGAIYPGNGDTSYKQKFRGRATLTADTSTSTVYMELSSLRSEDSAVYYCARGETARATFAYWGQGTLVTVSSG
VL: DIQMTQSPSSLSASVGDRVTITCSASQDIGNFLNWYQQKPGKTVKVLIYYTSSLYSGVPSRFSGSGSGTDYTLTISSLQPEDFATYYCQQYSKLPLTFGQGTKLELKR
notes: Unconjugated; variable domains are those of XMT-1535 by name only; also called XMT-1535 hIgG1-mIgG2a
B2: XMT-1535 mIgG2a Conjugate 32d, DAR 8.8 (antibody, V domains shown)
VH: QVQLVQSGAEVVKPGASVKMSCKASGYTFTGYNIHWVKQAPGQGLEWIGAIYPGNGDTSYKQKFRGRATLTADTSTSTVYMELSSLRSEDSAVYYCARGETARATFAYWGQGTLVTVSSG
VL: DIQMTQSPSSLSASVGDRVTITCSASQDIGNFLNWYQQKPGKTVKVLIYYTSSLYSGVPSRFSGSGSGTDYTLTISSLQPEDFATYYCQQYSKLPLTFGQGTKLELKR
notes: elsewhere called chimeric hIgG1-mIgG2a; the variable domains are those of XMT-1535 by name only
B3: XMT-1535 Conjugate 8b-3, DAR 6.4 (antibody, human IgG1, kappa)
heavy: not shown
light: DIQMTQSPSSLSASVGDRVTITCSASQDIGNFLNWYQQKPGKTVKVLIYYTSSLYSGVPSRFSGSGSGTDYTLTISSLQPEDFATYYCQQYSKLPLTFGQGTKLELKRRTVAAPSVFIFPPSDEQLKSGTASVVCLLNNFYPREAKVQWKVDNALQSGNSQESVTEQDSKDSTYSLSSTLTLSKADYEKHKVYACEVTHQGLSSPVTKSFNRGEC
modifications: STING agonist linker-drug on cysteine thiols of the reduced antibody, positions not given; STING agonist linker-drug (Compound 7) joined through maleimide to cysteine thiols of the TCEP-reduced antibody, positions not given; DAR 6.4 per antibody
B4: XMT-1535 (antibody, human IgG1, kappa)
heavy: not shown
light: DIQMTQSPSSLSASVGDRVTITCSASQDIGNFLNWYQQKPGKTVKVLIYYTSSLYSGVPSRFSGSGSGTDYTLTISSLQPEDFATYYCQQYSKLPLTFGQGTKLELKRRTVAAPSVFIFPPSDEQLKSGTASVVCLLNNFYPREAKVQWKVDNALQSGNSQESVTEQDSKDSTYSLSSTLTLSKADYEKHKVYACEVTHQGLSSPVTKSFNRGEC
notes: Unconjugated antibody, IgG1; also called anti-NaPi2b antibody; NaPi2b mAb

In the test the target is T1, human NaPi2b on OVCAR3 human ovarian …. Kind of test: flow cytometry on OVCAR3 cells, 1 h on ice, goat anti-human IgG-Alexa-647 detection, MFI; mean EC50. How it is done:
OVCAR3 cells were grown to ˜80-95% confluency in RPMI 1640 medium supplemented with FBS (20%) and penicillin/streptomycin (1%). Cells were harvested and added to wells of a 96-well U bottom plate (50,000/well). The cells were pelleted (300×g, 5 minutes) and resuspended in solutions of test articles as indicated in Table 18 at concentrations ranging between 0.01 nM and 300 nM and incubated on ice for 1 hour.
As to B1, the midpoint of the response, the EC50, lay at 4.13 nM.

For B2, a half-maximal effect (EC50) was put at 2.99 nM.

With B3, it took 8.13 nM to reach a half-maximal effect (EC50).

Consider B4, for which the EC50 (commonly the concentration needed to bring the measured effect to its halfway point) is 4.29 nM and 3.74 nM.
